Measured values as given in the supplement of paper PMC10065799, “High-throughput profiling of sequence recognition by tyrosine kinases and SH2 domains using bacterial peptide display” (eLife, 2023).
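Note: 11-residue human phosphosite peptides and single-mutation variants displayed on the E. coli surface, counted by deep sequencing, each peptide's frequency after selection divided by its frequency in the unselected input library; frequency after pTyr selection over input frequency; kinase dosed for 20-30% of maximal phosphorylation in three min.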

What follows are sequences tested against FGFR3 (UniProt P22607) (assay: phosphorylation enrichment, bacterial display (enrichment ratio); higher = better substrate or ligand; peptides without Tyr show the background).
Chain of FGFR3 (P22607 whole entry, looked up): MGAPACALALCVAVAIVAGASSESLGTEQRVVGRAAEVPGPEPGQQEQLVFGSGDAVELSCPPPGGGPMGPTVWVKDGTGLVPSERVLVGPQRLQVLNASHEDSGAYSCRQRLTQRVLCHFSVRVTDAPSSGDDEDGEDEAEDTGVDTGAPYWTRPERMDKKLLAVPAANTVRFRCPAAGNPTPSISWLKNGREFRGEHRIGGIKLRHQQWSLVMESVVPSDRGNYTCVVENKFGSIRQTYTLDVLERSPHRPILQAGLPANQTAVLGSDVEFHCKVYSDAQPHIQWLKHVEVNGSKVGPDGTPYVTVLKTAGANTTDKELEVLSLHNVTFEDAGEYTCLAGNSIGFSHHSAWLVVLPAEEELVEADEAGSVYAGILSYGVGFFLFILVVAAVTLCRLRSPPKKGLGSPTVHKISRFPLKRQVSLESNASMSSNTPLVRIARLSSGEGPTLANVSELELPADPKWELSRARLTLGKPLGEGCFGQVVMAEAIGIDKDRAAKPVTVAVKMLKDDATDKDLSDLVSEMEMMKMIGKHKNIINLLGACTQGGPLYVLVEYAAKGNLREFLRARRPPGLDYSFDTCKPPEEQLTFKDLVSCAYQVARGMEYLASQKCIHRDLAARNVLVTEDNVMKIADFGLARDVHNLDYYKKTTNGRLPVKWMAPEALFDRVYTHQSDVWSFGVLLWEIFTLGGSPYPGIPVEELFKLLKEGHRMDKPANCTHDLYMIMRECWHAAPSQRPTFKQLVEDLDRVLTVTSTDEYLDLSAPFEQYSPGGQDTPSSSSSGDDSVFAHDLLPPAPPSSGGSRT
STILLYHIMAW [GPR143_Y157] was tested, and the phosphorylation enrichment was 2.88. NKVKFYIPDMN [NCR1_Y84] showed a phosphorylation enrichment of 0.66. Sequence GIVEDYRPPLF [ACVRL1_Y421_F425L_YF] has a phosphorylation enrichment of 0.722. PVKDPYVMFPQ [PLEKHG2_Y489] was tested, and the phosphorylation enrichment was 1.54. GNHISYYQSDG [CACNA1C_Y1757_V1755I] showed a phosphorylation enrichment of 0.569. HFVDEYDRTIE [KRAS_Y32_P34R] was tested, and the phosphorylation enrichment was 0.932. For RCLKDYGEFEV [GINS1_Y156], the phosphorylation enrichment was 0.82. With QPSALYEDRYL [ASS1_Y83_S79P] the phosphorylation enrichment was 0.625. IHHIDYFKETT [FGFR1_Y653_K656E_YF] was tested, and the phosphorylation enrichment was 0.567. Sequence RVGVDYEGRGC [PLOD1_Y675_G678R] has a phosphorylation enrichment of 0.709. PEPTGYSAELS [EZR_Y499_A494P] gave a phosphorylation enrichment of 0.762. ASGKFYAMKIL [AKT3_Y174_YF] was tested, and the phosphorylation enrichment was 0.589. Work on NMSRIYSTAKV [ACE_Y151] yielded a phosphorylation enrichment of 0.448. Sequence LPENPYHSRPR [NDUFA8_Y142] has a phosphorylation enrichment of 0.408. With SVVVPYELPEV [TP53_Y220_P222L] the phosphorylation enrichment was 0.723. With TVSQPYSFIEF [SEC22B_Y110_R108Q] the phosphorylation enrichment was 8.47. With HTVVSYAEVRA [CLOCK_Y378] the phosphorylation enrichment was 0.599. For CEAIEYLESKQ [BTK_Y511_M509I], the phosphorylation enrichment was 0.835. FSQETYYRVSN [ABCD1_Y180_Q178E] showed a phosphorylation enrichment of 3.85. In the case of LKDEDYLKDIV [HAUS3_Y582], the phosphorylation enrichment is reported as 0.988. Work on PESILYRKFTT [NTRK1_Y701] yielded a phosphorylation enrichment of 0.73. In the case of EAIAKYDLKAT [GRB2_Y7_F9L], the phosphorylation enrichment is reported as 0.634. For ADEQIYWQIAA [CSKtide_2014], the phosphorylation enrichment was 6.65. In the case of IRTIDYRFTVS [IDS_Y497_W502S_YF], the phosphorylation enrichment is reported as 0.683. Work on SIDLGYHKDLQ [NF1_Y1169_G1166D] yielded a phosphorylation enrichment of 0.485. RREQDYTNLPS [CSF1R_Y923_R921Q] showed a phosphorylation enrichment of 0.951. CSKRFYQLTKL [AR_Y858_R855K] was tested, and the phosphorylation enrichment was 0.556. MSRDVYSIDFF [NTRK2_Y702_T704I_YF] gave a phosphorylation enrichment of 1.2. EHEALYLEADL [CENPF_Y1920] was tested, and the phosphorylation enrichment was 1.8. YQQLFYLLQIN [IQGAP2_Y890_T894I] gave a phosphorylation enrichment of 2.15. Work on EQYELHCEMGS [CBL_Y371_Y371H] yielded a phosphorylation enrichment of 0.818. With NGVSFYINLCQ [IGF2R_Y2025_YF] the phosphorylation enrichment was 1.01. Sequence ANNPLYKEVTS [ITGB3_Y773_A776V] has a phosphorylation enrichment of 0.58.

Each sequence was assayed against Fyn (UniProt P06241) in the same assay as above.
Chain of Fyn (P06241 whole entry, looked up): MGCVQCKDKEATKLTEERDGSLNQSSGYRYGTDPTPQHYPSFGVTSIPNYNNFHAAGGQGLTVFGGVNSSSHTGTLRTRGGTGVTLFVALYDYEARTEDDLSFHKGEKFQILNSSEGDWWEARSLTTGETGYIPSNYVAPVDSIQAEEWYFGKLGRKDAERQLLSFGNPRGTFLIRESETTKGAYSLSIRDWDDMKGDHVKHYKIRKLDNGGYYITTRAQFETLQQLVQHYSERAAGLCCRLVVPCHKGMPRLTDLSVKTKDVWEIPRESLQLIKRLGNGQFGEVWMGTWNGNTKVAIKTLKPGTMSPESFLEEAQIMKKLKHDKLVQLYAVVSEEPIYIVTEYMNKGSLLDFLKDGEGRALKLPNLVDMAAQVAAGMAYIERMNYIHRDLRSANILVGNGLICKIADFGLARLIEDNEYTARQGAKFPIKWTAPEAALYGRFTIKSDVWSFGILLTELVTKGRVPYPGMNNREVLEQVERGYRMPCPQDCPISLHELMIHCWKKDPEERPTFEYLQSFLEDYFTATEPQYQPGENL
STILLYHIMAW [GPR143_Y157] was tested, and the phosphorylation enrichment was 0.766. NKVKFYIPDMN [NCR1_Y84] was tested, and the phosphorylation enrichment was 0.396. For GIVEDYRPPLF [ACVRL1_Y421_F425L_YF], the phosphorylation enrichment was 0.458. PVKDPYVMFPQ [PLEKHG2_Y489] showed a phosphorylation enrichment of 1.62. Sequence GNHISYYQSDG [CACNA1C_Y1757_V1755I] has a phosphorylation enrichment of 0.514. Work on HFVDEYDRTIE [KRAS_Y32_P34R] yielded a phosphorylation enrichment of 0.653. With RCLKDYGEFEV [GINS1_Y156] the phosphorylation enrichment was 0.677. QPSALYEDRYL [ASS1_Y83_S79P] showed a phosphorylation enrichment of 0.946. IHHIDYFKETT [FGFR1_Y653_K656E_YF] gave a phosphorylation enrichment of 0.555. With RVGVDYEGRGC [PLOD1_Y675_G678R] the phosphorylation enrichment was 0.542. Sequence PEPTGYSAELS [EZR_Y499_A494P] has a phosphorylation enrichment of 0.57. ASGKFYAMKIL [AKT3_Y174_YF] was tested, and the phosphorylation enrichment was 0.529. In the case of NMSRIYSTAKV [ACE_Y151], the phosphorylation enrichment is reported as 0.477. LPENPYHSRPR [NDUFA8_Y142] gave a phosphorylation enrichment of 0.72. Work on SVVVPYELPEV [TP53_Y220_P222L] yielded a phosphorylation enrichment of 0.503. Work on TVSQPYSFIEF [SEC22B_Y110_R108Q] yielded a phosphorylation enrichment of 4.91. With HTVVSYAEVRA [CLOCK_Y378] the phosphorylation enrichment was 0.897. CEAIEYLESKQ [BTK_Y511_M509I] showed a phosphorylation enrichment of 0.485. FSQETYYRVSN [ABCD1_Y180_Q178E] showed a phosphorylation enrichment of 1.77. LKDEDYLKDIV [HAUS3_Y582] gave a phosphorylation enrichment of 0.791. PESILYRKFTT [NTRK1_Y701] gave a phosphorylation enrichment of 0.377. EAIAKYDLKAT [GRB2_Y7_F9L] was tested, and the phosphorylation enrichment was 0.408. For ADEQIYWQIAA [CSKtide_2014], the phosphorylation enrichment was 5.62. Sequence IRTIDYRFTVS [IDS_Y497_W502S_YF] has a phosphorylation enrichment of 0.424. SIDLGYHKDLQ [NF1_Y1169_G1166D] showed a phosphorylation enrichment of 0.51. In the case of RREQDYTNLPS [CSF1R_Y923_R921Q], the phosphorylation enrichment is reported as 0.446. For CSKRFYQLTKL [AR_Y858_R855K], the phosphorylation enrichment was 0.454. For MSRDVYSIDFF [NTRK2_Y702_T704I_YF], the phosphorylation enrichment was 8.38. In the case of EHEALYLEADL [CENPF_Y1920], the phosphorylation enrichment is reported as 0.653. For YQQLFYLLQIN [IQGAP2_Y890_T894I], the phosphorylation enrichment was 0.625. Sequence EQYELHCEMGS [CBL_Y371_Y371H] has a phosphorylation enrichment of 0.491. Sequence NGVSFYINLCQ [IGF2R_Y2025_YF] has a phosphorylation enrichment of 0.452. ANNPLYKEVTS [ITGB3_Y773_A776V] gave a phosphorylation enrichment of 0.428.

These sequences were tested against MERTK (UniProt Q12866) in the same assay as above.
Chain of MERTK (Q12866 whole entry, looked up): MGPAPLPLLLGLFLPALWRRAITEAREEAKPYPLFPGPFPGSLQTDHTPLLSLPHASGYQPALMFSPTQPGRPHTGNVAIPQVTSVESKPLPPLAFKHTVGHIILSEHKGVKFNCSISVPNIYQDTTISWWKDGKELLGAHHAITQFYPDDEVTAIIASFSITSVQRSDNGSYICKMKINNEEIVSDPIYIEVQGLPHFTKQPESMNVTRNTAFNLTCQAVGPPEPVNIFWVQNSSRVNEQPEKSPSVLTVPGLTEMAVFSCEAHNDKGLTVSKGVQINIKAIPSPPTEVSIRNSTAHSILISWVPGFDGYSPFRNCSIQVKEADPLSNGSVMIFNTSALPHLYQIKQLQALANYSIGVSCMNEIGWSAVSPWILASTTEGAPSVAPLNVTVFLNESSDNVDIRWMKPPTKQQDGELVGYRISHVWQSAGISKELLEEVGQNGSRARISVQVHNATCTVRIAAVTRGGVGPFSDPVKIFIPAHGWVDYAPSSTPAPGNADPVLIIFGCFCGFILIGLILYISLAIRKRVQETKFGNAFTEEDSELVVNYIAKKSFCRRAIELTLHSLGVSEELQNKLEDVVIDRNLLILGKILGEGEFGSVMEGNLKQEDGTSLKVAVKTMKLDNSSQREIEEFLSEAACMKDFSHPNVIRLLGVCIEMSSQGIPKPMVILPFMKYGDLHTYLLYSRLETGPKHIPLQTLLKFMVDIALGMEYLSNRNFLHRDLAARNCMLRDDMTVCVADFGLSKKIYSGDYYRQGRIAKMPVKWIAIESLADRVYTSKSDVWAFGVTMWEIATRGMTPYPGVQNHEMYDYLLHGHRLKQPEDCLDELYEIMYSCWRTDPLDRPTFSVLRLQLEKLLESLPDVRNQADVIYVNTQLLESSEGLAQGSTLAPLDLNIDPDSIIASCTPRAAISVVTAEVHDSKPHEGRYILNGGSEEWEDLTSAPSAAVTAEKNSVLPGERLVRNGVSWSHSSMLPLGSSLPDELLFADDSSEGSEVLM
Sequence STILLYHIMAW [GPR143_Y157] has a phosphorylation enrichment of 4.05. For NKVKFYIPDMN [NCR1_Y84], the phosphorylation enrichment was 0.388. With GIVEDYRPPLF [ACVRL1_Y421_F425L_YF] the phosphorylation enrichment was 0.377. PVKDPYVMFPQ [PLEKHG2_Y489] was tested, and the phosphorylation enrichment was 0.47. GNHISYYQSDG [CACNA1C_Y1757_V1755I] was tested, and the phosphorylation enrichment was 0.411. Work on HFVDEYDRTIE [KRAS_Y32_P34R] yielded a phosphorylation enrichment of 0.58. Sequence RCLKDYGEFEV [GINS1_Y156] has a phosphorylation enrichment of 0.524. QPSALYEDRYL [ASS1_Y83_S79P] was tested, and the phosphorylation enrichment was 0.78. For IHHIDYFKETT [FGFR1_Y653_K656E_YF], the phosphorylation enrichment was 0.427. RVGVDYEGRGC [PLOD1_Y675_G678R] showed a phosphorylation enrichment of 0.59. PEPTGYSAELS [EZR_Y499_A494P] showed a phosphorylation enrichment of 0.567. ASGKFYAMKIL [AKT3_Y174_YF] showed a phosphorylation enrichment of 0.509. Sequence NMSRIYSTAKV [ACE_Y151] has a phosphorylation enrichment of 0.417. For LPENPYHSRPR [NDUFA8_Y142], the phosphorylation enrichment was 0.415. SVVVPYELPEV [TP53_Y220_P222L] was tested, and the phosphorylation enrichment was 0.47. Sequence TVSQPYSFIEF [SEC22B_Y110_R108Q] has a phosphorylation enrichment of 8.32. In the case of HTVVSYAEVRA [CLOCK_Y378], the phosphorylation enrichment is reported as 0.509. Work on CEAIEYLESKQ [BTK_Y511_M509I] yielded a phosphorylation enrichment of 0.461. FSQETYYRVSN [ABCD1_Y180_Q178E] showed a phosphorylation enrichment of 3.78. LKDEDYLKDIV [HAUS3_Y582] was tested, and the phosphorylation enrichment was 0.884. PESILYRKFTT [NTRK1_Y701] was tested, and the phosphorylation enrichment was 0.542. EAIAKYDLKAT [GRB2_Y7_F9L] was tested, and the phosphorylation enrichment was 0.412. Sequence ADEQIYWQIAA [CSKtide_2014] has a phosphorylation enrichment of 3.12. Work on IRTIDYRFTVS [IDS_Y497_W502S_YF] yielded a phosphorylation enrichment of 0.441. For SIDLGYHKDLQ [NF1_Y1169_G1166D], the phosphorylation enrichment was 0.531. RREQDYTNLPS [CSF1R_Y923_R921Q] gave a phosphorylation enrichment of 0.466. Sequence CSKRFYQLTKL [AR_Y858_R855K] has a phosphorylation enrichment of 0.47. Sequence MSRDVYSIDFF [NTRK2_Y702_T704I_YF] has a phosphorylation enrichment of 7.45. EHEALYLEADL [CENPF_Y1920] was tested, and the phosphorylation enrichment was 0.77. YQQLFYLLQIN [IQGAP2_Y890_T894I] showed a phosphorylation enrichment of 1.31. Sequence EQYELHCEMGS [CBL_Y371_Y371H] has a phosphorylation enrichment of 0.476. NGVSFYINLCQ [IGF2R_Y2025_YF] gave a phosphorylation enrichment of 0.478. ANNPLYKEVTS [ITGB3_Y773_A776V] was tested, and the phosphorylation enrichment was 0.481.

The sequences below were run on c-Abl (mouse) in the same assay as above.
In the case of STILLYHIMAW [GPR143_Y157], the phosphorylation enrichment is reported as 1.23. With NKVKFYIPDMN [NCR1_Y84] the phosphorylation enrichment was 0.602. Work on GIVEDYRPPLF [ACVRL1_Y421_F425L_YF] yielded a phosphorylation enrichment of 0.511. In the case of PVKDPYVMFPQ [PLEKHG2_Y489], the phosphorylation enrichment is reported as 0.636. GNHISYYQSDG [CACNA1C_Y1757_V1755I] showed a phosphorylation enrichment of 0.403. Work on HFVDEYDRTIE [KRAS_Y32_P34R] yielded a phosphorylation enrichment of 1.36. RCLKDYGEFEV [GINS1_Y156] showed a phosphorylation enrichment of 1.12. In the case of QPSALYEDRYL [ASS1_Y83_S79P], the phosphorylation enrichment is reported as 0.681. Sequence IHHIDYFKETT [FGFR1_Y653_K656E_YF] has a phosphorylation enrichment of 0.445. In the case of RVGVDYEGRGC [PLOD1_Y675_G678R], the phosphorylation enrichment is reported as 0.575. Sequence PEPTGYSAELS [EZR_Y499_A494P] has a phosphorylation enrichment of 0.962. ASGKFYAMKIL [AKT3_Y174_YF] gave a phosphorylation enrichment of 0.675. NMSRIYSTAKV [ACE_Y151] gave a phosphorylation enrichment of 0.545. In the case of LPENPYHSRPR [NDUFA8_Y142], the phosphorylation enrichment is reported as 0.761. Work on SVVVPYELPEV [TP53_Y220_P222L] yielded a phosphorylation enrichment of 0.848. TVSQPYSFIEF [SEC22B_Y110_R108Q] was tested, and the phosphorylation enrichment was 0.805. With HTVVSYAEVRA [CLOCK_Y378] the phosphorylation enrichment was 0.781. For CEAIEYLESKQ [BTK_Y511_M509I], the phosphorylation enrichment was 0.816. FSQETYYRVSN [ABCD1_Y180_Q178E] showed a phosphorylation enrichment of 1.03. Sequence LKDEDYLKDIV [HAUS3_Y582] has a phosphorylation enrichment of 1.64. Work on PESILYRKFTT [NTRK1_Y701] yielded a phosphorylation enrichment of 0.732. For EAIAKYDLKAT [GRB2_Y7_F9L], the phosphorylation enrichment was 0.617. ADEQIYWQIAA [CSKtide_2014] gave a phosphorylation enrichment of 5.09. IRTIDYRFTVS [IDS_Y497_W502S_YF] gave a phosphorylation enrichment of 0.989. SIDLGYHKDLQ [NF1_Y1169_G1166D] gave a phosphorylation enrichment of 0.557. RREQDYTNLPS [CSF1R_Y923_R921Q] gave a phosphorylation enrichment of 0.691. Sequence CSKRFYQLTKL [AR_Y858_R855K] has a phosphorylation enrichment of 0.587. MSRDVYSIDFF [NTRK2_Y702_T704I_YF] showed a phosphorylation enrichment of 0.652. In the case of EHEALYLEADL [CENPF_Y1920], the phosphorylation enrichment is reported as 0.938. In the case of YQQLFYLLQIN [IQGAP2_Y890_T894I], the phosphorylation enrichment is reported as 1.3. EQYELHCEMGS [CBL_Y371_Y371H] was tested, and the phosphorylation enrichment was 0.82. NGVSFYINLCQ [IGF2R_Y2025_YF] gave a phosphorylation enrichment of 1.16. With ANNPLYKEVTS [ITGB3_Y773_A776V] the phosphorylation enrichment was 0.584.
